Square brackets hold non-standard residues; d marks the D form. Ends that are not written are not given here. * marks the point of attachment. Palmitoyl = CCCCCCCCCCCCCCCC(=O)*; Myristoyl = CCCCCCCCCCCCCC(=O)*; Nle = CCCC[C@H](N)C(=O)O
T1: human PrRP receptor GPR10 (human, UniProt P49683 1-370)
T1 construct: whole, on cells; also called GPR10 human receptor transfected in CHO cells; human GPR10 receptor
T1 sequence (looked up): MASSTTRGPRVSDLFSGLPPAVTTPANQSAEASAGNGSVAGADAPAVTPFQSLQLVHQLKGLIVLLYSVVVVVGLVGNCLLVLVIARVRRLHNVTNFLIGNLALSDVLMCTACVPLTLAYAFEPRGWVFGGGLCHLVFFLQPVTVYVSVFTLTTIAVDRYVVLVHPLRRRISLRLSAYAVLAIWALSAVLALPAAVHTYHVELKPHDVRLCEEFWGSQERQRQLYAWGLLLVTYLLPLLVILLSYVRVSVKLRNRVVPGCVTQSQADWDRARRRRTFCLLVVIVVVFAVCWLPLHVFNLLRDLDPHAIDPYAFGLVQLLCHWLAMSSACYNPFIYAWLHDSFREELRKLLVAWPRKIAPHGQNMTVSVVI

T2: rat PrRP receptor in RC-4B/C cells (rat, UniProt Q64121 1-370)
T2 construct: whole, on cells; endogenous receptor of RC-4B/C cells (ATCC); also called rat receptor; GPR10 receptor expressed in rat hypophyseal cells
T2 sequence (looked up): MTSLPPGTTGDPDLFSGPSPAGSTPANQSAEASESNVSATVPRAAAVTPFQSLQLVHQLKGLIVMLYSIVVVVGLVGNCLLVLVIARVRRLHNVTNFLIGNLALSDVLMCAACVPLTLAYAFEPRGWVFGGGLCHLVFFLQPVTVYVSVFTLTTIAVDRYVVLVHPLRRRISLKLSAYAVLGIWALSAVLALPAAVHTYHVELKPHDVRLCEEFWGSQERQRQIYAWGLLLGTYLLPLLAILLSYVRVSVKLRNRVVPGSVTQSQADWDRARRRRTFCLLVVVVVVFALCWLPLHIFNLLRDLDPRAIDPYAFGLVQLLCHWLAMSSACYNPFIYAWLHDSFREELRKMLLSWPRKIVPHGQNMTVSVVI

B1: analog no. 50 (peptide)
peptide: TPDINPK(Palmitoyl)WYASRGIRPVGRF-NH2
modifications: N-terminus assumed
SMILES: CCCCCCCCCCCCCCCC(=O)NCCCC[C@H](NC(=O)[C@@H]1CCCN1C(=O)[C@H](CC(N)=O)NC(=O)[C@@H](NC(=O)[C@H](CC(=O)O)NC(=O)[C@@H]1CCCN1C(=O)[C@@H](N)[C@@H](C)O)[C@@H](C)CC)C(=O)N[C@@H](Cc1c[nH]c2ccccc12)C(=O)N[C@@H](Cc1ccc(O)cc1)C(=O)N[C@@H](C)C(=O)N[C@@H](CO)C(=O)N[C@@H](CCCNC(=N)N)C(=O)NCC(=O)N[C@H](C(=O)N[C@@H](CCCNC(=N)N)C(=O)N1CCC[C@H]1C(=O)N[C@H](C(=O)NCC(=O)N[C@@H](CCCNC(=N)N)C(=O)N[C@@H](Cc1ccccc1)C(N)=O)C(C)C)[C@@H](C)CC
B2: analog no. 49 (peptide)
peptide: TPDIK(Palmitoyl)PAWYASRGIRPVGRF-NH2
modifications: N-terminus assumed
SMILES: CCCCCCCCCCCCCCCC(=O)NCCCC[C@H](NC(=O)[C@@H](NC(=O)[C@H](CC(=O)O)NC(=O)[C@@H]1CCCN1C(=O)[C@@H](N)[C@@H](C)O)[C@@H](C)CC)C(=O)N1CCC[C@H]1C(=O)N[C@@H](C)C(=O)N[C@@H](Cc1c[nH]c2ccccc12)C(=O)N[C@@H](Cc1ccc(O)cc1)C(=O)N[C@@H](C)C(=O)N[C@@H](CO)C(=O)N[C@@H](CCCNC(=N)N)C(=O)NCC(=O)N[C@H](C(=O)N[C@@H](CCCNC(=N)N)C(=O)N1CCC[C@H]1C(=O)N[C@H](C(=O)NCC(=O)N[C@@H](CCCNC(=N)N)C(=O)N[C@@H](Cc1ccccc1)C(N)=O)C(C)C)[C@@H](C)CC
B3: analog no. 44 (peptide)
peptide: Palmitoyl-SRTHRHSMEIRTPDINPAWYASRGIRPVGRF-NHMe
SMILES: CCCCCCCCCCCCCCCC(=O)N[C@@H](CO)C(=O)N[C@@H](CCCNC(=N)N)C(=O)N[C@H](C(=O)N[C@@H](Cc1c[nH]cn1)C(=O)N[C@@H](CCCNC(=N)N)C(=O)N[C@@H](Cc1c[nH]cn1)C(=O)N[C@@H](CO)C(=O)N[C@@H](CCSC)C(=O)N[C@@H](CCC(=O)O)C(=O)N[C@H](C(=O)N[C@@H](CCCNC(=N)N)C(=O)N[C@H](C(=O)N1CCC[C@H]1C(=O)N[C@@H](CC(=O)O)C(=O)N[C@H](C(=O)N[C@@H](CC(N)=O)C(=O)N1CCC[C@H]1C(=O)N[C@@H](C)C(=O)N[C@@H](Cc1c[nH]c2ccccc12)C(=O)N[C@@H](Cc1ccc(O)cc1)C(=O)N[C@@H](C)C(=O)N[C@@H](CO)C(=O)N[C@@H](CCCNC(=N)N)C(=O)NCC(=O)N[C@H](C(=O)N[C@@H](CCCNC(=N)N)C(=O)N1CCC[C@H]1C(=O)N[C@H](C(=O)NCC(=O)N[C@@H](CCCNC(=N)N)C(=O)N[C@@H](Cc1ccccc1)C(=O)NC)C(C)C)[C@@H](C)CC)[C@@H](C)CC)[C@@H](C)O)[C@@H](C)CC)[C@@H](C)O
B4: analog no. 47 (peptide)
peptide: Palmitoyl-SRAHQHSMETRTPDINPAWYTGRGIRPVGRF-NH2
SMILES: CCCCCCCCCCCCCCCC(=O)N[C@@H](CO)C(=O)N[C@@H](CCCNC(=N)N)C(=O)N[C@@H](C)C(=O)N[C@@H](Cc1c[nH]cn1)C(=O)N[C@@H](CCC(N)=O)C(=O)N[C@@H](Cc1c[nH]cn1)C(=O)N[C@@H](CO)C(=O)N[C@@H](CCSC)C(=O)N[C@@H](CCC(=O)O)C(=O)N[C@H](C(=O)N[C@@H](CCCNC(=N)N)C(=O)N[C@H](C(=O)N1CCC[C@H]1C(=O)N[C@@H](CC(=O)O)C(=O)N[C@H](C(=O)N[C@@H](CC(N)=O)C(=O)N1CCC[C@H]1C(=O)N[C@@H](C)C(=O)N[C@@H](Cc1c[nH]c2ccccc12)C(=O)N[C@@H](Cc1ccc(O)cc1)C(=O)N[C@H](C(=O)NCC(=O)N[C@@H](CCCNC(=N)N)C(=O)NCC(=O)N[C@H](C(=O)N[C@@H](CCCNC(=N)N)C(=O)N1CCC[C@H]1C(=O)N[C@H](C(=O)NCC(=O)N[C@@H](CCCNC(=N)N)C(=O)N[C@@H](Cc1ccccc1)C(N)=O)C(C)C)[C@@H](C)CC)[C@@H](C)O)[C@@H](C)CC)[C@@H](C)O)[C@@H](C)O
B5: analog no. 26 (peptide)
peptide: Myristoyl-[dF][dR]GVPRIGRGTYWAPNIDPT-NH2
SMILES: CCCCCCCCCCCCCC(=O)N[C@H](Cc1ccccc1)C(=O)N[C@H](CCCNC(=N)N)C(=O)NCC(=O)N[C@H](C(=O)N1CCC[C@H]1C(=O)N[C@@H](CCCNC(=N)N)C(=O)N[C@H](C(=O)NCC(=O)N[C@@H](CCCNC(=N)N)C(=O)NCC(=O)N[C@H](C(=O)N[C@@H](Cc1ccc(O)cc1)C(=O)N[C@@H](Cc1c[nH]c2ccccc12)C(=O)N[C@@H](C)C(=O)N1CCC[C@H]1C(=O)N[C@@H](CC(N)=O)C(=O)N[C@H](C(=O)N[C@@H](CC(=O)O)C(=O)N1CCC[C@H]1C(=O)N[C@H](C(N)=O)[C@@H](C)O)[C@@H](C)CC)[C@@H](C)O)[C@@H](C)CC)C(C)C
notes: scrambled peptide; also called 26 scram
B6: Human PrRP20 (peptide)
peptide: TPDINPAWYASRGIRPVGRF-NH2
notes: synthetic peptide
B7: analog no. 46 (peptide)
peptide: Myristoyl-SRAHQHSMETRTPDINPAWYTGRGIRPVGRF-NH2
SMILES: CCCCCCCCCCCCCC(=O)N[C@@H](CO)C(=O)N[C@@H](CCCNC(=N)N)C(=O)N[C@@H](C)C(=O)N[C@@H](Cc1c[nH]cn1)C(=O)N[C@@H](CCC(N)=O)C(=O)N[C@@H](Cc1c[nH]cn1)C(=O)N[C@@H](CO)C(=O)N[C@@H](CCSC)C(=O)N[C@@H](CCC(=O)O)C(=O)N[C@H](C(=O)N[C@@H](CCCNC(=N)N)C(=O)N[C@H](C(=O)N1CCC[C@H]1C(=O)N[C@@H](CC(=O)O)C(=O)N[C@H](C(=O)N[C@@H](CC(N)=O)C(=O)N1CCC[C@H]1C(=O)N[C@@H](C)C(=O)N[C@@H](Cc1c[nH]c2ccccc12)C(=O)N[C@@H](Cc1ccc(O)cc1)C(=O)N[C@H](C(=O)NCC(=O)N[C@@H](CCCNC(=N)N)C(=O)NCC(=O)N[C@H](C(=O)N[C@@H](CCCNC(=N)N)C(=O)N1CCC[C@H]1C(=O)N[C@H](C(=O)NCC(=O)N[C@@H](CCCNC(=N)N)C(=O)N[C@@H](Cc1ccccc1)C(N)=O)C(C)C)[C@@H](C)CC)[C@@H](C)O)[C@@H](C)CC)[C@@H](C)O)[C@@H](C)O
B8: analog no. 19 (peptide)
peptide: SHQRPADTHWYPRG[Nle]FPTIGRITARNGEVSR
notes: scrambled peptide; also called 19 scram

Each binder was assayed against T1, human PrRP receptor GPR10 (assay: competition with 125I-human PrRP31, CHO cells with human GPR10).
Procedure: CHO cells transfected with human PrRP receptor GPR10 (Perkin Elmer, USA) were grown on 24-well plates coated with polyethyleneimine. […] The following agents were used for the experiment: binding buffer (25 mmol.1⁻¹ Tris, pH 7.4; 118 mmol.1⁻¹ NaCl, 10 mmol.1⁻¹ MgCl₂, 1 mmol.1⁻¹ CaCl₂, 5.5 mmol.1⁻¹ glucose, 0.5 mg/ml BSA), unlabeled analogs of PrRP (i.e. the analog being tested) at a final concentration between 10⁻¹¹ to 10⁻⁴ mol.1⁻¹, and radiolabeled human ¹²⁵1-PrRP31 at a final concentration of 5×10⁻¹¹ mol.1⁻¹.
(§1) Plates were incubated for 60 minutes at room temperature. After incubation, the cells were solubilized in 0.1 mol/l solution of NaOH, and the radioactivity bound to the cells was counted using a γ-counter. The experiments were performed in duplicate, and repeated at least three times.

% of PrRP31 [%]	Ki [µM]	Binder
69	0.00564	B1
90	0.00434	B2
123	–	B3

Each binder was assayed against T2, rat PrRP receptor in RC-4B/C cells (assay: competition with 125I-rat PrRP31, RC-4B/C cells).
Procedure: The rat pituitary cell line RC-4B/C (ATCC, Manassas, USA) was grown on 24-well plates which had their bottom coated with polyethyleneimine. The cells were grown to the optimal density of 300-450 thousand cells per well.
as §1

% of PrRP31 [%]	Ki [µM]	Binder
1200	0.00041	B4
1.4	0.364	B5
277	0.00178	B6
657	0.00075	B7
4e-05	1320	B8

— patent US20150196651A1 (published 2015)
